Experimental findings from patent US20230303689A1 (published 2023) are described below.

Experiment [1] has as its target T1, human PD-1 expressed on cells (HuT78/PD-1, NK92MI/PD-1) (human, UniProt Q15116 25-288). Kind of experiment: cell-based or functional assay.
The target in experiment [2] is P3Z chimeric PD-1 receptor on HuT78/P3Z cells (human). The experiment can be described thus: cell-based or functional assay.
Experiment [3] has as its target T1, human PD-1 expressed on cells …. Kind of experiment: cell-based or functional assay. The source holds these as a separate data set.
In a further experiment the target is T2, PD-1-EC/Fc (human).
T2 construct: also called PD-1/Fc
Kind of experiment: SPR (BIAcore T-200), mAb captured on anti-mouse Fc chip, PD-1/Fc injected. Background: SPR reads the build-up and loss of mass on a sensor chip optically.

Experiment [4] concerns the target T1, human PD-1 expressed on cells …. The experiment can be described thus: FACS on PD-1-expressing cells.

Read-outs that look alike come from different tables or passages of the source.

T2 sequence (Q15116 21-168): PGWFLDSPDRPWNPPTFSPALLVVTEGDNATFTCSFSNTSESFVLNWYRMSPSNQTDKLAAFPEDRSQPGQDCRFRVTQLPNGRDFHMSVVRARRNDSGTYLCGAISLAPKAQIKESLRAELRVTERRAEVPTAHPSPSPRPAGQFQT
T1 sequence (Q15116 25-288): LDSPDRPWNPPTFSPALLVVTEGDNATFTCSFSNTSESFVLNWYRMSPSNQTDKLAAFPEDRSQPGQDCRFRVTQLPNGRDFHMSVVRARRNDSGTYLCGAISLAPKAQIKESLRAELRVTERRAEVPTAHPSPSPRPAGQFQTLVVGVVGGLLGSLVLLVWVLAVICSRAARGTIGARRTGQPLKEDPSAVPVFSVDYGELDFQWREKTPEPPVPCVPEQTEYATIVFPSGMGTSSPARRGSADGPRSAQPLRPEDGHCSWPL
Sequence of P3Z chimeric PD-1 receptor on HuT78/P3Z cells (human) (chain, as listed by the source mutant limits assumed): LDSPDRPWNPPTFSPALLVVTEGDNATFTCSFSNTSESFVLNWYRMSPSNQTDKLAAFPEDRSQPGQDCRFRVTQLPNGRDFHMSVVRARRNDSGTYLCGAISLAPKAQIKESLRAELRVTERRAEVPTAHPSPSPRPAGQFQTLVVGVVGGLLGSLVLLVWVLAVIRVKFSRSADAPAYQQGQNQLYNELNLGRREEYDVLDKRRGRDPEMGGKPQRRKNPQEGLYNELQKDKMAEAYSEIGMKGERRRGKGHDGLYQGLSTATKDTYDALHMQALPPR
Method for PD-1-EC/Fc: Anti-mouse Fc CM5 biosensor chip (GE Healthcare) was generated using a standard primary amine coupling protocol. PD-1 mAbs at 0.3 µg/ml were captured on anti-mouse Fc surface for 1 min at 10 µl/min. […] Association rates (Kₐ or kₒₙ) and dissociation rates (Kd or koff) were calculated using the one-to-one Langmuir binding model (BIA Evaluation Software, GE Life Sciences). The equilibrium dissociation constant (KD) was calculated as the ratio koff/kₒₙ.

B1: hu317-1 (humanized, human IgG2/kappa) (antibody, V domains shown, not shown: a dimerising Fc or GST)
VH: QVQLQESGPGLVKPSETLSLTCTVSGFSLTSYGVHWIRQPPGKGLEWLGVIWAGGSTNYNPSLKSRLTISKDNSKSQVSLKMSSVTAADTAVYYCARAYGNYWYIDVWGQGTTVTVSS
VL: DIVMTQSPDSLAVSLGERATINCKASQSVSNDVAWYQQKPGQPPKLLINYAFHRFTGVPDRFSGSGYGTDFTLTISSLQAEDVAVYYCHQAYSSPYTFGGGTKLEIKR
Turning to B1, the “Assay-1, IL-2 release HuT78/PD-1 + HEK293/OS8/PD-L1: Baseline” value in experiment [1] came out at 91 pg/mL.

B2: murine mAb 317 (antibody, V domains shown)
VH: QVQLKESGPGLVAPSKNLSITCTVSGFSLTSYGVHWIRQPPGKGLEWLGVIWAGGSTNYNSALMSRLSISKDNSRSQVFLRMNSLQTDDTAMYYCARAYGNYWYIDVWGAGTTVTVSS
VL: DIVMTQTPKFLLVSAGDRVTITCKASQSVSNDVAWYQQKPGQSPKLLINYAFHRFTGVPDRFTGSGYGTDFIFTISTVQAEDLAVYFCHQAYSSPYTFGGGTKLEMK
Consider B2, for which, in experiment [2], the “Inhibition of IL-2 secretion, HuT78/P3Z + HEK293/PD-L1: IC50” value was 0.083 µg/mL. Besides, the “Assay-1, IL-2 release HuT78/PD-1 + HEK293/OS8/PD-L1: Baseline” value in experiment [1] was found to be 98 pg/mL.

B3: ch317 (chimeric antibody from mu317, human IgG2/kappa) (antibody, V domains shown, not shown: a dimerising Fc or GST)
VH: QVQLKESGPGLVAPSKNLSITCTVSGFSLTSYGVHWIRQPPGKGLEWLGVIWAGGSTNYNSALMSRLSISKDNSRSQVFLRMNSLQTDDTAMYYCARAYGNYWYIDVWGAGTTVTVSS
VL: DIVMTQTPKFLLVSAGDRVTITCKASQSVSNDVAWYQQKPGQSPKLLINYAFHRFTGVPDRFTGSGYGTDFIFTISTVQAEDLAVYFCHQAYSSPYTFGGGTKLEMKR
For B3, the “Assay-1, IL-2 release HuT78/PD-1 + HEK293/OS8/PD-L1: Baseline” value in experiment [1] amounted to 82 pg/mL.

B4: hu326-1 (humanized, human IgG2/kappa) (antibody, V domains shown, not shown: a dimerising Fc or GST)
VH: QVQLVQSGSELKKPGASVKVSCKASGYTFTNYGMNWVRQAPGQGLEWMGWINNNNGEPTYAQGFRGRFVFSLDTSASTAYLQISSLKTEDTAVYFCARDVMDYWGQGTTVTVSS
VL: DIVLTQSPASLAVSPGQRATITCRASESVDNYGYSFMHWYQQKPGQPPKLLIYRASNLESGVPARFSGSGSRTDFTLTINPVEANDTANYYCQQSKEYPTFGGGTKVEIKR
Consider B4, for which the “Assay-1, IL-2 release HuT78/PD-1 + HEK293/OS8/PD-L1: Baseline” value in experiment [3] turned out to be 283 pg/mL.

B5: murine mAb 326 (antibody, V domains shown)
VH: QIQLVQSGPELKKPGETVKISCKASGYTFTNYGMNWVKQAPGKGLKWMGWINNNNGEPTYAEEFKGRFAFSLETSASTAYLQINNLKNEDTATYFCARDVMDYWGQGTSVTVSS
VL: DIVLTQSPASLAVSLGQRATISCRASESVDNYGYSFMHWYQQKPGQPPQLLIYRASNLESGIPARFSGSGSRTGFTLTINPVEADDVATYYCQQSKEYPTFGGGTKLEVK
notes: Murine hybridoma IgG; also called mu326
One may read the Kd as a measure of binding affinity in units of concentration. Read a high Kd as weaker binding. One may read the koff as the rate constant with which the complex falls apart. High values mean a short-lived complex, low ones a long-lived complex. The kon is the second-order rate constant of association. The low end stands for slower complex formation, the high end for faster complex formation. As to B5, the “Inhibition of IL-2 secretion, HuT78/P3Z + HEK293/PD-L1: IC50” value in experiment [2] was 0.039 µg/mL. The “Assay-1, IL-2 release HuT78/PD-1 + HEK293/OS8/PD-L1: Baseline” value in experiment [3] came out at 242 pg/mL. In the experiment with PD-1-EC/Fc, this molecule returned a Kd of 0.324 nM, a koff of 7.79e-05 s⁻¹ and an on-rate (kon) of 240000 M⁻¹ s⁻¹.

B6: ch326 (chimeric antibody from mu326, human IgG2/kappa) (antibody, V domains shown)
VH: QIQLVQSGPELKKPGETVKISCKASGYTFTNYGMNWVKQAPGKGLKWMGWINNNNGEPTYAEEFKGRFAFSLETSASTAYLQINNLKNEDTATYFCARDVMDYWGQGTSVTVSS
VL: DIVLTQSPASLAVSLGQRATISCRASESVDNYGYSFMHWYQQKPGQPPQLLIYRASNLESGIPARFSGSGSRTGFTLTINPVEADDVATYYCQQSKEYPTFGGGTKLEVKR
notes: domain: human Ig kappa C-region; not shown: human IgG2 constant region
Usually EC50 stands for the concentration needed to bring the measured effect to its halfway point. Read a low EC50 as greater potency. Turning to B6, the “Assay-1, IL-2 release HuT78/PD-1 + HEK293/OS8/PD-L1: Baseline” value in experiment [3] amounted to 250 pg/mL. In experiment [4], this molecule came in with an EC50 of 0.72 µg/mL.
